Laboratory results from the nanobody polyreactivity screen of Harvey et al. (2022).

Experiment: yeast display, Sf9 membrane polyspecificity reagent, FACS + sequencing; frameworks hold sequencing errors
Method in brief: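 Galactose induction of a Saccharomyces cerevisiae BJ5465 synthetic nanobody display library ran 36–48 hours. The cells were then stained for 1 hour at 4 °C with 10% biotinylated, detergent-solubilized Sf9 membrane reagent, pulled down on streptavidin microbeads and FACS-sorted into low and high (top ~1%) gates on expression and reagent-binding fluorescence. Labels for polyreactivity follow the gate of origin.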

Row | Sequence | polyreactivity (PSR sort gate)
1 | QVQLVESGGGLVQAGGSLRLSCAASGYIFYNAMGSYRQAPGKERELVAAISSSGGTTYADSVKGRFTISRDNAKNTVYLQMNSLKPEDTAVYYCAARSEFYWGWEYITYDYWGQGTQVTVSS | low polyreactivity
2 | QVQLVESGGGLVQAGGSLRLSCAASGYIFYSNDMGWSRQAPGKVRELVAAIDNGGSTTYADSVKGRFTISRDNAKNTVYLQMNSLKPEDTAVYYCATDNPFTSTTYDYWGQGTQVTVSS | low polyreactivity
3 | QVQLVESGGGLVQAGGSLRLSCAASGYIFYWYDMGWYRQAPGKEREMVAVIPTSGGSTYYADSVKGRFTISRDNAKNTVYLQMNSLKPEDTAVEYCNADSLFEYWDYDYWGQGTQVTVSS | low polyreactivity
4 | QVQLVESGGGLVQAGGSLRLSCAASGYIFYYNAMGWYRQAPGKERELVAVISRTGASTYYADSVKGRFTISRDNAKNTVYLQMNSLKPEDTAVYYCAVRYETVDGNWRYFYWGQGTQVTVSS | high polyreactivity
5 | QVQLVESGGGLVQAGGSLRLSCAASGYIFYYYAMGWYRQAPGKESELVAAISSTVSTNYADSVKGRFTISRDNAKNTVYLQMNSLKPEDSAVYYCAAAQRVNHVWYDYWGQGTQVTVSS | low polyreactivity
6 | QVQLVESGGGLVQAGGSLRLSCAASGYIIFTNAMGWYRQAPGKERQLVAAISTIDGSTYYADSVKGRFTISRDNAKNTVYLQMNSLKPEDTAVYYCATDTPFISSLAYDYWGQGTQVTVSS | low polyreactivity
7 | QVQLVESGGGLVQAGGSLRLSCAASGYIILGYAMGWYRQAPGKERELVAVINWSGGRTRYADSVKGRFTISRDNAKNTVYLQMNSLKPEDTAVYYCAAERSITYDYWGQGTQVTVSS | high polyreactivity
8 | QVQLVESGGGLVQAGGSLRLSCAASGYIINYNAMGWYRQAPGKERELVAAISSRGGSTYYADSVKGRFTISRDNAKNTVYLQMNSLKPEDTAVYYCNARYYSWYQRYDRRRGYDYWGQGTQVTVSS | low polyreactivity
9 | QVQLVESGGGLVQAGGSLRLSCAASGYIIYVYAMGWYRQAPGKERELVADISLNGGSTYYADSVKGRFTISRDNAKNTVYLEMNSLKPEDTAVYYCAADGWLYRTYWYYYWGQGTQVTVSS | high polyreactivity
10 | QVQLVESGGGLVQAGGSLRLSCAASGYILFAYAMGWYRQAPGKERELVATITTSGGITYYADSVKGRFTISRDNAKNTVYLQMNSLKPEDTAVYYCAAAEGGGLVTYDYWGQGTQVTVSS | low polyreactivity
11 | QVQLVESGGGLVQAGGSLRLSCAASGYILYGYAMGGYRQAPGKERELVAAISNDGSTYYADSVKGRFTISRDNAKNSVYLQMNSLKTEDTAVYYCNAREYGYFKYDYWGQGTQVTVSS | high polyreactivity
12 | QVQLVESGGGLVQAGGSLRLSCAASGYISFGYAMGWYRQAPGKEREFVAAISVGGGTTYYADSVKGRFTISRDNAKNTVYLQMNSLKPEDTAVYYCAGRSYSYAPRRGYWGQGTQVTVSS | high polyreactivity
13 | QVQLVESGGGLVQAGGSLRLSCAASGYISYVNPMGWYRQAPGKERELVAAISGRGGSTYYADSVKGRFTISRDNAKNTVYLQMYSLKPEDTAVYYCAADLYYSYYWGQGTQVTVSS | low polyreactivity
14 | QVQLVESGGGLVQAGGSLRLSCAASGYIYPPYAMRWYRQAPGKERELVATITRIGGSTYYADSVKGRLTMSRDNAKNTVDLQMNSLKPEDTAVYYCAARRDCGPYLSPENPAPMDYWGQGTQVTVSS | low polyreactivity
15 | QVQLVESGGGLVQAGGSLRLSCAASGYIYYQYAMGWSRQAPGKERELVAGINWRGGSTYADSVKGRFTISRDNAKNTVYLQMNSLKPEDTEVYYCNAKQYRQDVFRRPSYYAYYYWGQGTQVTVSS | high polyreactivity
16 | QVQLVESGGGLVQAGGSLRLSCAASGYIYYYNGMGWYRQAPGKERELVADISRRGGSTYYADSVKGRFTISRDNAKNTESLQMNSLKPEDTAVYYCNARARSAFSYDSWGQGTQVTVSS | high polyreactivity
17 | QVQLVESGGGLVQAGGSLRLSCAASGYNFHDYAMGWYRQAPGKERELFAAISKRGGSTYYADSVKGRFTISRDNAKNTVYLQMNSLKPEDTAVYYCAKGGPHRGTGLNDYWGQCTQVTVSS | high polyreactivity
18 | QVQLVESGGGLVQAGGSLRLSCAASGYNFLRNAMGWYRQAPGKERELVAAISYSGGGTYYADSVKGRFTISRDNAKNTVYLQMNSLKPEDTAVYYCNVAQRYYGNFWSESIEYDYWGLGTQVTVSS | low polyreactivity
19 | QVQLVESGGGLVQAGGSLRLSCAASGYNFRHYVMGWYRQAPGKERELVAAITYSGGSTYYADSVKGRFTISRDNAKNTVYLQMNSLKPEDTAVYYCAARRRRSDPYDFWGQGTQVTVSS | high polyreactivity
20 | QVQLVESGGGLVQAGGSLRLSCAASGYNFVKNAMGWYRQAPGKERELVAAISTRGGRTYYADSVKGRFTISRDNAKNTVYLQMNSLKPEDTAVYYCAAVHQTSYYDANSYGYWGQGTQVTVSS | high polyreactivity
21 | QVQLVESGGGLVQAGGSLRLSCAASGYNFYRYAMGWYRQAPGKEMELVATIRSGGSTNYADSVKGRFTISRDNAKNTVYLQMNSLKPEDTAVYYCAKVRGWYDPYTYGYSEYGYWGQGTQVTVSS | low polyreactivity
22 | QVQLVESGGGLVQAGGSLRLSCAASGYSFKSYVMGWYSQAPGKERELVAAITWSGGSTYYADSVKGRFTLSRDNAKNTVFLQMHSLKPEDTAVYYCAAYPRRYRTTYDYWGQGTQVTVSS | high polyreactivity

Row | Sequence | polyreactivity (PSR sort gate)
23 | QVQLVESGGGLVQAGGSLRLSCAASGYTCGPYAMGWYRQAPGKERELVAAITTRGGSTYYADSVKGRFTISRDNAKNTVYLQMNSLKPEDTAVYYCAAVVNSKSIQRVVRYYYWGQGTQVTVSS | high polyreactivity
24 | QVQLVESGGGLVQAGGSLRLSCAASGYTFAFYAMGWYRQAPGKERELVAAISAGGGRTYYADSVKGRFTISRDNAKNTVYLQMNSLKPEDTAVYYCATDLIQGAAPFRYDYWGQGTQVTVSS | low polyreactivity
25 | QVQLVESGGGLVQAGGSLRLSCAASGYTFAGNAMGWYRQAPGKERELVAAISRSGGRTYYAVSVKGRFTISRDNAKNTVYLQMNSLKPEDTAVYYCAAYFPRTLFEFGYWGQGTQVTVSS | high polyreactivity
26 | QVQLVESGGGLVQAGGSLRLSCAASGYTFAGNAMGWYRQATGKERELVAAISRSGGRTYYADSVKGRFTISRDNAKNTVYLQMNSLKPEDTAVYYCAAYFPRTLFEFGYWGQGTQVTVSS | high polyreactivity
27 | QVQLVESGGGLVQAGGSLRLSCAASGYTFDAYAMGWYRQAPGKERELVAAITTNGGSTYYADSVKGRFTISRDNAKNTVYLQMNSLKPEDTAVYYCNAEYWYEGRYPYDYWGQGTQVTVSS | low polyreactivity
28 | QVQLVESGGGLVQAGGSLRLSCAASGYTFDRYAMGWYRQAPGKERELVAVISRSGATTYYADSVKGRFTISRDNAKNTVYLQMNSLKPEDTAVYYCAARNPSGKGRYDYWGQGTQVTVSS | high polyreactivity
29 | QVQLVESGGGLVQAGGSLRLSCAASGYTFDTKAMGWYRLAPGKERELVAAISRIGGRTYADSVKGRFTISRDNAKNTVYLQMNSLKPEDTAVYYGAADTTWYPYGYDSWGQGTPVTVSS | low polyreactivity
30 | QVQLVESGGGLVQAGGSLRLSCAASGYTFESYTMGWYRQAPGKEREFVAVISSSDTSTSYADSVKGRFTISRDNAKNTVYLQMNSLKPEDTAVYYCAAYSSPYYITYYWYNYDYWGQGTQVTVSS | low polyreactivity
31 | QVQLVESGGGLVQAGGSLRLSCAASGYTFEVYAMGWYRQAPGKERELVADITTRTGNTYYADSVKGRFTISRDNAKNTVYLQMNSLKPEDTAVYYCAADLQRYWWWYEYWGQGTQVTVSS | high polyreactivity
32 | QVQLVESGGGLVQAGGSLRLSCAASGYTFEYYAMGWYRQAPGKERELVAAISWSGGDTYYADSVKGRFTISRDNAKNTVYLQMNSLKPEDTAVYYCNADLYNYFYYANWYGAYDYWGQGTQVTVSS | low polyreactivity
33 | QVQLVESGGGLVQAGGSLRLSCAASGYTFFYMGSYRQAPGKEREFVAVITYSGGSTYYADSVKGRFTISRDNAKNTVYLQLNSLKPEDTAVYYCAAAVWHYGRPGYLDSGYDYWGQGTQVTVSS | low polyreactivity
34 | QVQLVESGGGLVQAGGSLRLSCAASGYTFGAYAMGWYRQAPGKERELVAAIPVRAGRTYYADSVKGRFTISRDNAKNTVYLQMNSLKPEDTAVYYCARRNPLGGNEHDYWGQGTQVTVSS | low polyreactivity
35 | QVQLVESGGGLVQAGGSLRLSCAASGYTFGDYAMGWYRQAPGKERELVASITQTGGSTYADSVKGRFTISRDNAKNTVYLQMNSLKPEDTAVYYCNARYPWWESLRQTDRGKGFDYWGQGTQVTVSS | low polyreactivity
36 | QVQLVESGGGLVQAGGSLRLSCAASGYTFGVYVMGWYRQAPGKERELVAAISGSTYYADSVKGRFTISRDNAKNTVYLQMNSLKPEDTAVYYCNADYYRSVLIIGVYEYDYWGQGTHVTVSS | low polyreactivity
37 | QVQLVESGGGLVQAGGSLRLSCAASGYTFGYYAMGWYRQAPGKERELVAAISYSGGTTYYADSVKGRFTISRDNAKNTVYLQMNSLKPEDTAVYYCNKRYWVRTGKVSSYDYWGQGTQVTVSS | high polyreactivity
38 | QVQLVESGGGLVQAGGSLRLSCAASGYTFHGYAMGWYRQAPGKERELVAVITQRGGSTSYADSVKGRFTISRDNAKNTVYLQMNSLKPEDTAVYYCEYYYWGQGTQVTVSS | low polyreactivity
39 | QVQLVESGGGLVQAGGSLRLSCAASGYTFHGYAMGWYRQAPGKERELVAVITQRGGSTYYADSVKGRFTISRDNAKNTVYLQMNSLKPEDTAVYYCAARYAGPSPTDTGHDYWGQGTQVTVSS | low polyreactivity
40 | QVQLVESGGGLVQAGGSLRLSCAASGYTFHGYAMGWYRQAPGKESELVAVITQRGGSTSYADSVKGRFTISRDNAKITVYLQMNSLKPEDTAVYYCNASAWLVVARTRYGYWGQGTQVTVSS | low polyreactivity
41 | QVQLVESGGGLVQAGGSLRLSCAASGYTFHGYSMGWYRKAPGKERELVAVITQRGGSTSYADSVKGRFTISRDNAKNTVYLQMNSLKPEDTAVYYCNASAWLVVARTRYGYWGQGTQVTVSS | low polyreactivity
42 | QVQLVESGGGLVQAGGSLRLSCAASGYTFHHNTMGWYRQAPGKERELVATISDGGSTNYADSVKGRFTISRDNAKNTVYLQMNSLKPEDTAVYYCAALYQQFQSALVPYFDVIEEDYWGQGTQVTVSS | low polyreactivity
43 | QVQLVESGGGLVQAGGSLRLSCAASGYTFIGYAMGWYRQAPGKERELVAAISWSVGRTYYADSVKGRFTISRDNAKNTVYLQMNSLKPEDTAVYYCNAVSSFYYCYDYWGQVTQVTVSS | low polyreactivity
